Experimental data reported in patent US12673985B2, “Method for the treatment or prophylaxis of cancer by targeting the extracellular portion of keratin 14 (KRT14) residing on cancer cells” (Hudson Institute of Medical Research, priority 2019, dated 2026).

Key:
[1] = system: OVCAR4 ovarian cancer cells; test: Real time cell analysis (RTCA) of proliferation with cisplatin and mAb AN-17; type: cell-based, human
Experimental: Real time cell analysis (RTCA) was conducted as previously described (PMID: 31443478; Bilandzic et al., Cancers (Basel). 2019; 11(9), E1228) using an xCELLigence RTCA SP 96-well instrument (ACEA Biosciences). Cell lines were synchronized in G0 by overnight incubation in serum-free media and were seeded at 0.5×10^3 cells/0.15 ml/per well. […] Impedance readings were taken every 15 minutes for the experimental duration. mAb AN-17 comprises the heavy chain variable region of SEQ ID NO:3 and the light chain variable region of SEQ ID NO:5, encoded by the nucleic acid sequences of SEQ ID NOs:2 and 4, respectively (see also FIGS. 21 and 22A-22B).

[2] = system: ovarian cancer cells; test: Real-time in vitro invasion assay (xCELLigence RTCA) with anti-KRT14 antibodies, rK14 and competing peptides; type: cell-based, human; conditions: for restoration of invasive capacity in competition with anti N-terminal KRT14 antibody: competition assay (FIG. 4B, 5B)
Experimental: xCELLigence Real Time Cell Analyses (RTCA). Real time cell analyses (RTCA) were conducted using an xCELLigence RTCA SP 96-well instrument (ACEA Biosciences). Cell lines were synchronized in Go phase by overnight incubation in serum-free media prior to commencement. For proliferation assays, cells were seeded at 0.5×10^3 cells/0.14 ml/per well (as outlined in the experimental text), and impedance readings taken every 5 minutes for 8 hours (in order to monitor cell adhesion), and subsequently every 15 minutes for 24 hours (to monitor cell proliferation). For invasion assays the upper chamber of a CIM-16 well plate was coated with Matrigel matrix (1:10 in SFM; BD Biosciences, San Jose, CA). Cells were seeded into the upper chamber (as above), with media+/−10% v/v FBS added to the lower chamber. All assays were performed in duplicate or triplicate, with at least three independent experiments.
Using flow cytometry and immunocytochemical staining of intact cells, it was observed that the N terminus of KRT14 is exposed at the cell surface (FIGS. 4A-4B). Consistent with other studies (Papafotiou et al. (2016) supra; Rock et al. (2009) supra), KRT14+ cells represented only a subset of tumor cell population (FIG. 4A). […] Thus, loss of invasive capacity was directly due to binding of the antibody of KRT14. Moreover, this effect is mediated by antibody binding to the N-terminus of KRT14; and the N-terminus was exposed on the external side of cells, accessible to antibody binding.
Antigenicity and hydrophobicity plots were used to examine the first 200 amino acids of KRT14 in silico (FIG. 5A). Five potentially antigenic regions were predicted, and six peptides encompassing to these regions were synthesized for use in further competition assays. Blockade of the N-terminal antibody by peptides #4 and #5 restored invasion (FIG. 5B) and migration (FIG. 5C) of ovarian cancer cells in vitro. […] Based on antibody and peptide competition assays, the surface-exposed region of the KRT14 protein was defined within the amino sequence NH2-[…] (SEQ ID NO:1). […]

| Molecule | cell viability and proliferation ([1]; cisplatin alone at 1.25 μg/ml) | cell viability and proliferation ([1]; cisplatin alone at 15 μg/ml or 20 μg/ml) | invasion by ovarian cancer cells in vitro ([2]; antibody or rK14 added exogenously (FIG. 4B)) | restoration of invasive capacity in competition with anti N-terminal KRT14 antibody [2] | restoration of invasive capacity in competition with anti N-terminal KRT14 antibody ([2]; listed as recombinant KRT14 protein) |
| --- | --- | --- | --- | --- | --- |
| N.N.[Cl][Pt][Cl] [cisplatin, reference compound] | sub-lethal and cells continued to proliferate | complete cell death |  |  |  |
| rK14: exogenously added, full-length recombinant KRT14 protein (protein) MTTCSRQFTSSSSMKGSCGIGGGIGGGSSRISSVLAGGSCRAPSTYGGGLSVSSSRFSSGGACGLGGGYGGGFSSSSSSFGSGFGGGYGGGLGAGLGGGFGGGFAGGDGLLVGSEKVTMQNLNDRLASYLDKVRALEEANADLEVKIRDWYQRQRPAEIKDYSPYFKTIEDLRNKILTATVDNANVLLQIDNARLAADDFRTKYETELNLRMSVEADINGLRRVLDELTLARADLEMQIESLKEELAYLKKNHEEEMNALRGQVGGDVNVEMDAAPGVDLSRILNEMRDQYEKMAEKNRKDAEEWFFTKTEELNREVATNSELVQSGKSEISELRRTMQNLEIELQSQLSMKASLENSLEETKGRYCMQLAQIQEMIGSVEEQLAQLRCEMEQQNQEYKILLDVKTRLEQEIATYRRLLEGEDAHLSSSQFSSGSQSSRDVTSSSRQIRTKVMDVHDGKVVSTHEQVLRTKN |  |  | had no effect alone | successfully competed with a N-term antibody to restore invasive capacity | could compete for antibody binding, and resorted invasion in vitro |
